Measurements published in the nanobody polyreactivity screen of Harvey et al. (2022).

Assay: yeast display, Sf9 membrane polyspecificity reagent, FACS + sequencing; frameworks hold sequencing errors
In short: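 After 36–48 hours of galactose induction, yeast (Saccharomyces cerevisiae BJ5465) displaying a synthetic nanobody library were stained at 4 °C for 1 hour with 10% biotinylated, detergent-solubilized Sf9 membrane reagent. Streptavidin microbeads enriched the stained cells before FACS sorting into low and high (top ~1%) gates on anti-HA and streptavidin fluorescence. Each clone's polyreactivity label reflects its gate of origin.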

| Sequence | polyreactivity (PSR sort gate) |
| --- | --- |
| QDQLVESGGGLVQAGGSLRLSCAATGSTFPSNAMGWYRQAPGKEREFVATIRFSGGSTYYADSVKGRFTISRVNAKNTVDLQMNSLKPEDTAVYYCAARFYSSAYWYDYWGQGTQVTVSS | high polyreactivity |
| QVQLVESGGGLVQAGGSLRISCAASARTLKRNAMGWYRQAPGKERELVAAISFRVTNTYYADSVKGRFTISRDNAKNTVYLQMYSLKPEDTAVYYCAVPDSRFYSPRRVSPHDYWGQGTQVTVSS | high polyreactivity |
| QVQLVESGGGLVQAGGSLRLSFAASGRTFNTYTMGWYRQAPGKERELVAAITGTGGSTFYADSVKGRFTISRDNAKNTVYLQMNSLKPEDTAVYYCNADLEVTIGVYTDGFDSDYWGQGTQVTVSS | low polyreactivity |
| QVQLVESGGGLVQAGGRHRLTCAASGYTFDWYTMGWYRQAPGTERELVAAISASGVRTYYADSVKGRFTISSDNAKNSVYLQMNSLKPEDTAVYYCYRVYSTSRITEYEFDYWGQGTQVTVSS | low polyreactivity |
| QFQLVESGGGLVQAGGSLRLSCAASGLIFVINAMGWYRQAPGKERELDATISSGVSTNYADSVKGRFTISRDNAKNTVYLQMNSLKPEDTAVYYCNKDGVVEVRFTVRQEYDYWGQGTQVTVSS | low polyreactivity |
| QVQLVESGGGLVQAGGSLRLSCAASGNTFYAYTMGLYIQAPGKERELVAAISSDGSTNYADSVKGRFTISRDNAKNTVYLQMNSLKPEDTAVYYCAVTLEVSTVRDYDYWGQGTQVTVSS | low polyreactivity |
| QVQLVESGGGLVQAGGSLRISCAASAITFEPYAMGWYRQAPGTEREFVAAISRSGGSTYYADSVKGRFTISRDNAKNTVYLQMNSLKPEDTAVYYCAADSWIGPDYGHDYRGQGTQVTVSS | high polyreactivity |
| QVQLVESGGGLVQAGGSLRLSCAASGSIFRSYAMGWYRQAPGKERELVASITWRGGRTYYADSVKGRFTISRDNAKNTVYLQMNSLKPEDSAVYYCNVDVPGVRFEYWGQGTQVTVSS | low polyreactivity |
| QVQLVESGGGLGHAGGSLRLSCAASGRIYGRNAMGWNRKAQGKERELVAAINSGVSTYYADSVKGRFTISRDNAKNTFYLQMNSLKPEDTAVYYCAKAPQRRYYDFDYWGQGTQVTVSS | low polyreactivity |
| QVQLVESRGGLVQAGGSLRLSCAASGSTFYAYAMGWYRQAPGKERDLVAAISSSGGSTYYADSVKGRFTISRDNAKNTVYLQMNSLKTEDTAVYYCAAYDSVQKYWILGFDYWGQGTQVTVSS | low polyreactivity |
| QVQLVESGGGLVQAGGSLRLSCAASGSIFTSNAMGWYRQAPGKEWELVAAITSDGAITYADSVKRRFTISRDNAKNTVYLQMNTLKPEDTAVYYCAARIRQNPGGDNSWGQGTQVTVSS | low polyreactivity |
| QVQLVESGGGLVQAGGSLRLSCAASGGIFSAYSMGWYRKAPGKERELVASITTDGGITYYADSVKGRFTISRDNAKNTVYLQMNSLKPEDTAVYYCAVLQYYYPYYYWGQGTQVTVSS | low polyreactivity |
| QVQLVESGGGLGQAGGSLRLSCAASGFTFGGNGMGWYRPAPGKERELVASISWGGGSTYYADSVKGRFRISRDKAKNTVYLQMNSLKREDTAVYDCNADRYYWSSRPTSWFNYWGQGTQVTVSS | high polyreactivity |
| QVQLVESGGRLDQAGGSLRLSCAASASTFKEYPMGWYRQAPGKERELVAAISKSGDSTYYADSVKGRFTISRDNAKNTVYLQMNSLKPEDTAVYYCAADTFSFRWSDYWGLGTQVTVSS | low polyreactivity |
| QVQLVESGGGLDQAGGTLRLSCAASGSTFSDYAMGWYRQAPGKERQLVAAISVSDGSTYYADSVKGRFTISRDNAKNTVYFQMNSLKPEDTAVYYCAAEYPYFVYSYFRFDYWGQGTQVTVSS | low polyreactivity |
| QVQLVESGVGLVQAGGSLRLSCASSGRTFPTYAMGWYRQAPGKERELVAAIRISGGRTYYADSVKGRFTISRDNAKNTVDLQMNSLKPEDTAVYYCAADTYASYESWGQGTQVSVSS | high polyreactivity |
| QVQIVESGGGLVQAGGSLRLSCAASGRIFGYNAMGWYRQAPGKERELVATITVGGGSTYYADSVKGRFTISRDNAKNTVYLQMNSLKPEDTAVYYCAADSGYQPVLHRGYYRFNYWGQGTQVTVSS | low polyreactivity |
| QDQLVESGGGLVQAGGSLRLSCAASGRTFDDYAMGWSRPAPGKERELVAAINSGGNTYYADSVKGRFTISRDNAKNTVYLQMNSLKREDTADYYCAAYYRDKLSGYNYWRQGTQVTVSS | high polyreactivity |
| QVQLVESGGGLVQAGGSLRLSCAASGRIFTYYAMGWYRQAPGKERQLVAAISSGTGTNYADSVKGRFTNSRDNAKNTVYLQMNSLKPEDTAVYDCAADRQHVVVGYYYWGQGTQVTVSS | low polyreactivity |
| QVQLVESGGGLDQAGCSLRLSWAASGITSYYNAMGWYRQAPGKERELVAAITSGGSTYYADSVKGRFTISRDNAKNTVYLQMNSLKPEVTAVYYCARRSRYLWRYDYWGQGTQVTVSS | high polyreactivity |
| QVQRVESGGGLVQAGGRLRLSCAASGRTFETNAMGWYRQAPGKERELVAAISRSGGSTRYADSVKGRFTISRDNAKNTVYLQMNSLKPEDTAVYYCAVRVGLGGGYGGQGTQVTVSS | high polyreactivity |
| QVQLVESGGGLVQAGGSLRLSCAASGITFYGYAMGWYRQAPGKERELVATISSGGSTNYADSVKGRFTISRDNAKNTVYLQMNSLKPEDTAVYYCNAAPDVNRDYEGSGDYWGQGSQVTVSS | low polyreactivity |

| Sequence | polyreactivity (PSR sort gate) |
| --- | --- |
| QVQLVESGGGLVQAGGSLRLSCAASGSTSKYYAMGWYRQAPGKERELVAAITWSDVSTYYADSVKGRFTISRDNAKNTVYLQMNSLKPEDTAVYYCNAGYDYWGQGTQVTVSS | low polyreactivity |
| QVQLVESGGGLVQAGGSLRLRCAASGRTFGQNAMGLYRQAPGKEREFVAAISSSGGSTYYADSVKGRFTISRDNAKNTVYLQMNSLKPEDTAVYYCNARQYYYRSGAYASRYLYNYWGQGTQVTVSS | high polyreactivity |
| QVQLVESGGGLVQAGGSLRLSCAASGITFYPYAMGWYSQAPGKEWELVADITWSGGSTYYADSVKGRFTISRDNAKNTVYLQMNSLKPEDSAVYYCNRKSYRLRSKVRGQYLLGYDWGQGTQVTVSS | high polyreactivity |
| QVQLVESGGGLVQAGGSLRLSCAASGFTITDYAMGWYRQAPGKVRELVAAITWSGGSTYYADSVKGRFTLSRDNAKNTVYLQMNSLKPEDTAVYYCNKVTEGLKMDYWGQGTQVTVSS | low polyreactivity |
| QVQLVESGGGLVQAGGSLRLSCAASGYIFWLNALGWYRQAPGKERELVAAIRSSGGSTYYADSVKGRFTISRDNAKNTVYLQMNSLKPEDTAVYDCARRGYNWYTHFGYDYWGQGTQVTVSS | low polyreactivity |
| QVQLVESGGGLDQAGGSLRLSCAASGIFGVNTMGWYRQAPGKERELVASITSGGSTNYADSVKGRFTISRDNAKNTVYLQMNSLKPEDTAVYYCAAGLYLQGPFDYWGQGTQVTVSS | low polyreactivity |
| QVQLVESGGGLVQAGGSLRLSCPASGSIFYFYGMGWYRQAPGKEREFVAAISLYGGSTYYADSVKGRFTISRDNAKNTVYFQMNSLKPEDTAVYYCAARAWSYYHGKEDYWGQGTQVTVSS | high polyreactivity |
| QVQLVESGGGLVQAGGSLRLSCAASGSTFAWNAMGWDRQAPGKERELVAAISKSGGSTYYADSVKGRFTISRDNAKNTVYLQMNSLKPEDTAVYYCAASGTVYARVRYYYWGQGTQVTVSS | high polyreactivity |
| QVQLVESGGGLVEAGGSLRLSCAASGFNIPIYAMGWYRPAPGKERELVASITRSGGSTYYADSVKGRFTISRDNAMNTVYLQMNSLKPEDTAVYFCAASVKIISYLVHSELLGGELDYWGQGTQVTVSS | low polyreactivity |
| QVQLVESGGGLVQAGGSLRLSCAASGITFYTYAMGWYRQAPGKERELVAAITWRGGRTSYADSVKGRFTISRDNAKNTVYLQMNSLKPEDTAVYYCAKEAHPPWTSQDVFRSYDYWGQGTQVTVSS | low polyreactivity |
| QVQLEESGGGLVQAGGSLRLSCAASGFTFRYYAMGRYRQAPGKVRELVAVISRTGGSTNFADSVKGRFTISRDNAKKTVYLQMNSLKPEDTAVYYCNAVARYQTKYRYEYWGQGTQETVSS | high polyreactivity |
| QVQLVESGGGLVQAGGSLRLSCAASGSIFDYYAMGWYRQAPGKERELVAAISRSGTTNYADSVKGRFTISRDNAKNTVYFQMNSLKPEDTAVYYCNARTRGYRYTSALYYWGQGTQVTVSS | high polyreactivity |
| QVQLVESGGGLVQAGGSLRLSCAASGSIFRRYAMGWYRQAPGKERELVAGISSGGYTNYADSVKGRFTISRDNAKNTVYLQMNSLKPEDTAVYYCAAKQYRYVRYRPVDYWGQGTQVTVSS | high polyreactivity |
| QVQLVESGGGLVQAGGSLRLSCAASGSIFNYYVMGWYRQAPGKERELVAGIRWNGGSTYYADSVKGRFTISRDNAKNTVYLQMNSLKPEDTAVYYFAAQAWWGYYSRGPMDYWGQGTQVTVSS | low polyreactivity |
| HVQLVESGGGLVQAGGSLRLSCAASGRIFWYYTMGWSRQAPGKERELVASINSDSGTYYADSVKGRFTISRDNAKNTVYLQMNRLKPEDTAVYYCTRDSESDANTFTTSGIDEPYDYWGQGTQVTVSS | low polyreactivity |
| QVQLVESGGGLVQAGGSLRLSCAASGSISTVYAMGWYRQAPGKEMELVAAISWSGGSTYYADSVKGRFTISRDNAKNTVYLQMNSLKPEDTAVYYCAAEGYLVGSRWGPRYGDYWGQGTQVTVSS | high polyreactivity |
| QVQLVESGGGLVQAGGSLRLSCAASGSSLNLNAMGWYRQAPGKERELVAAIRWGGGSTYYADSVKGRFTISRDNAKNTDYLQMNSLKPEDTAVYYCAKAYHLGLGYRFDYWGQGTQVTVSS | high polyreactivity |
| QVQLVESGGGLVQAGGSLRLSCAASGRTFWYYAMGWYRQAPGKERELVASISASGGSTFYADSVKGRFSISRDHAKNTVYLQMNSLKPEDTAVYYCAAKNAVWRRYEYWGQGTQVTVSS | high polyreactivity |
| QVQLVESGGGVVQAGGSLRLSCAASGSTFYLYDMGWYRQEPGKERELVATITSGTSTTYADSVKGRYTISRDNAKNTVYLQMNSLKPEDTAVYYCNATDVGIITVGYGHGGYYWGQGTQVTVSS | low polyreactivity |
| QVQLVESGGGLVQAGGSLRLSCAASGRIFHVNAMGWYRQAPGKERELVAAISTSGGRTYYADSVKGRFTISRDNAKNTVYLQMNSLKPEDTAVYYCAASLGGYGERYYYWGQGTQVTVSS | high polyreactivity |
| QVQLVESGGGLVKAGGSLRLSCAASGSTFDWYAMGWYRQAPGKERELVAAITWRGDSTNYADSVKGRFTISRDNAKNTVYLQMNSLKPEDTAVYYCATGKTYRDDYWGQGTQVTVSS | high polyreactivity |
